Legend:
Test in all cases: cell-based or functional assay
[1] = biological target: T1, F protein of RSV A2 (on the virus in the neutralization assay) (respiratory syncytial virus, A2 strain, UniProt P03420 26-574)
[2] = biological target: T1, F protein of RSV A2 (on the virus in …); remark: listed apart in the source
[3] = biological target: F protein of RSV type B strain 18537 (on the virus in the neutralization assay) (respiratory syncytial virus type B, …, UniProt P13843 26-574)

Binder	IC50 of each RSV neutralizing antibody, RSV A2 [1] [µg/mL]	neutralizing ability against RSV A2, relative to 1129 [2] [times]	neutralizing ability against 18537, relative to 1129 [3] [times]
monoclonal antibody 6B2 (antibody, V domains shown) VH: EVQLQQSRPELVKPGASVKISCKASGYSFTAYFMNWVKQSHGKSLEWIGRINPYIGDTFYNQKFKGKATLTVDKSSNTAHMELLSLTSEDSAVYYCGRSEYGNYYFDYWGQGTTLTVSQ VL: ENVLTQSPAIMSASLGEKVTMSCRASSSVNYMYWYQQKSDASPKLWIYYTSNLAPGVPARFSGSGSGNSYSLTISSMEGEDAATYYCQQFTSSPLTFGAGTKLELK	0.0949	–	–
monoclonal antibody 5B11 (antibody, V domains shown) VH: QIQLVQSGPELKKPGETVKISCKASGYTFTDYSMHWLKQAPGKGLKWMGWITTETGEPTYADDFKGRFAFSLETSASTAYLQINNLKNEDTGIYFCARYYYGPFYWGQGTLVTVST VL: DIQMTQSPASLSASVGETVTITCRSSGNIHNFLTWYQQKQGKSPQFLVYNAKTLADGVSSRFSGSGSGTQFSLKINSLQPEDFGIYYCQHFWTTPYTFGGGTKLEIK	0.0074	50	~10
monoclonal antibody 7G5 (antibody, V domains shown) VH: QVQLKESGPGLVAPSQSLSITCTVSGFSLSSYGVHWIRQPPGKGLEWLGVIWAGGSTNYNSALMSRLSISEDNSKSQVFLKMNSLQTDDTAVYYCARKGLVWPAMDYWGQGTSVTVSQ VL: DIQMTQTTSSLSASLGDRVTISCRASQDISHYLNWYQQKPDGTVKLLIYYTSRLHSGVPSRFSGSGSGTDYSLTIYNLEQEDIATYFCQQGNTLPWTFGGGTKLEIK	0.0316	–	–
